Data: patent US20140045930A1, “ASSAY FOR ARGINYL HYDROXYLASE ACTIVITY” (priority 2011, published 2014)

Target: His-tagged L16 protein (recombinant, produced in YcfD knock out strain JW1114) (E. coli) (UniProt A7ZSK2)
Test: cell-based or functional assay

YcfD ectopically expressed in the deletion strain JW1114 (co-expressed with L16 from pETDuet-1) (from UniProt P27431 1-373) (enzyme)
hydroxylation of R-81 in L16 in vivo (MS); unmodified peptide detected (% unmodified peptide): < 1
